Test results published in the supplement of paper PMC11780869.

Tested on: Bacillus subtilis
Assay: cleaved RNA product abundance (RNA/gDNA barcode ratio) relative to median wild-type variant (ratio to wild type); higher = more accumulation of the downstream cleavage product
Method in brief: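 Oligos with a 9% error rate were used to build barcoded, mutagenized RNase Y cleavage-site windows within truncated aprE or tetM reporter mRNAs, which were integrated into the B. subtilis chromosome. Cultures were grown in LB at 37°C between OD600 0.0003 and 0.3. Cleaved RNA was gel-selected, reverse transcribed and barcode-sequenced, as were genomic DNA barcodes, and UMIs were collapsed. Cleaved product abundance is the scaled RNA:gDNA barcode ratio, with the median construct carrying the unmutated site as reference.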

[1] = experiment (reporter, strain, medium): exp 8a: truncated aprE reporter, strain BJT201 with 2% xylose (RNase J1 expressed), cleavage site: glnRA (positions -5 to +31 mutated)
[2] = experiment (reporter, strain, medium): exp 2b: truncated aprE reporter, strain BJT200, cleavage site: cggR-gapA (positions -7 to +36 mutated)
[3] = experiment (reporter, strain, medium): exp 4a: truncated aprE reporter, strain BJT201 with 2% xylose (RNase J1 expressed), cleavage site: cggR-gapA (positions -7 to +36 mutated)

Sequence | cleaved RNA product abundance [1] | cleaved RNA product abundance [2] | cleaved RNA product abundance [3] | cleaved RNA product abundance (experiment (reporter, strain, medium): exp 6: tetM reporter, strain 168, cleavage site: cggR-gapA (positions -7 to +36 mutated))
CGACATGTCCCGCTTCTTTCATTAATCCGTTAGCAACTGTTTTGATATATACATTTACATTTTAAGAGGAGGAAT | 0.372 | – | – | –
CGACATGTCCCGCTTCTTTCATTAATCCGTAAGCAACTGTATTGCTATATACATTTACCTTTTAAGAGGAGGAAT | 0.367 | – | – | –
ACAGACGAAGGAGCCGCAAACAAGTTATTAAGGGATGAATAATCCATCAATATAAATATCTCTCACTTATTTAAA | – | 0.182 | 0.192 | –
ACAGACGAAGGAGCCGCAAAGAAGTTATTAAGGGATGACTAATCCCTCAATATAATTATCTCTCACTTATTTAAA | – | – | 0.282 | –
CGACATGTCCCGCTTCTTTCATTAAACCGTTAGCAACTGTTTTGCTACATACATTTACCTTTTAAGAGGAGGAAT | 0.237 | – | – | –
ACAGACGAAGGAGCCGCAAAGAAGTAATTAAGGGATGCATAATCCCTCAATATAAATATCTCTCACTTATTTAAA | – | 0.186 | 0.288 | –
ACAGACGAAGGAGCCGCAAATAAGTTATTAAGGGATGAATAATCCCTCGATATAAATATCTCTCACTTATTTAAA | – | 0.459 | – | –
CGACATGTCCCGCTTCTTTCATTAATCCGTTAGCAACTGTTTTGCTTTATACATATACCTTTTAAGAGGAGGAAT | 0.406 | – | – | –
ACAGACGAAGGAGCCGCAAAGAAGTTTTTAAGGGATGAATAATTCCTCAATATAAATATCTCTCACTTATTTAAA | – | 0.177 | 0.195 | –
CGACATGTCCCGCTTCTTTCATTAATCCGTTTGCAACTCTTTTGCTATATACATTTACCTTTTAAGAGGAGGAAT | 0.483 | – | – | –
CGACATGTCCCGCTTCTTTCATTAATCCGCGAGCAACTGTTTTGCTATATACATTTACCTTTTAAGAGGAGGAAT | 0.318 | – | – | –
ACAGACGAAGGAGCCGCAAAGAACTTATTAAGGGATGAATAATCCCACAATATAAATATCTCTCACTTATTTAAA | – | 0.207 | 0.292 | –
ACAGACGAAGGAGCCGCAAAGAAGTTATTAAGGTATGAATAATCCCTCATTATAAATATCTCTCACTTATTTAAA | – | – | 0.107 | –
ACAGACGAAGGAGCCGCAAAGAAGTTATTAAGGGATGAATAATCCCTAAATATAAATATCTCTCACTTATTTAAA | – | 0.622 | 0.72 | 0.772
ACAGACGAAGGAGCCGCAAAGAAATTAATAAGGGATGAATAATCCCTCAATATAAATATCTCTCACTTATTTAAA | – | 0.223 | 0.245 | –
CGACATGTCCCGCTTCTTTCATTAATCCGTTAGCAACTGTTTTGTTATATACAGTTACCTTTTAAGAGGAGGAAT | 0.162 | – | – | –
ACAGACGAAGGAGCCGCAAAGAAGATATTAAGGGATGAATAATCCCTCAAAATAAATATCTCTCACTTATTTAAA | – | 0.15 | 0.205 | –
ACAGACGAAGGAGCCGCAAAGAAGTTATTCAGAGATGAATAATCCCTCAATATAAATATCTCTCACTTATTTAAA | – | 0.167 | 0.159 | –
ACAGACGAAGGAGCCGCAAAGAAGTTATTAAGGGATGAATAATCCCCCAATATACATATCTCTCACTTATTTAAA | – | – | 0.446 | –
CGACATGTCCCGCTTCTTTCATTAATCCGTTAGCAAGTGTTTTGCTATATACATTTACCTTTTAAGAGGAGGAAT | 0.995 | – | – | –
ACAGACGAAGGAGCCGCAAAGAAGTTATTAAGGCATGAATAATTCCTCAATATAAATATCTCTCACTTATTTAAA | – | 0.107 | 0.133 | –
ACAGACGAAGGAGCCGCAAAGAAATTATTAAGGGATGAATAATCCCTCGATATAAATATCTCTCACTTATTTAAA | – | – | 0.395 | –
ACAGACGAAGGAGCCGCAAAGAAGTTATTAAAGGCTGAATAATCCCTCAATATAAATATCTCTCACTTATTTAAA | – | 0.0927 | 0.0571 | –
ACAGACGAAGGAGCCGCAAAGAAGTTATTCAAGGATGAATAATCCCTCAATATAAATATCTCTCACTTATTTAAA | – | 0.134 | 0.242 | –
ACAGACGAAGGAGCCGCAAAGAAGTTATTCATGGATGAATAATCCCTCAATATAAATATCTCTCACTTATTTAAA | – | – | 0.137 | –
CGACATGTCCCGCTTCTTTCATTAATCCGTTAGCAACTGTTTTTATATATACATTTACCTTTTAAGAGGAGGAAT | 0.669 | – | – | –
ACAGACGAAGGAGCCGCAAAGAAGTTATTAAGGGATGAATAATCCCACAATATATATATCTCTCACTTATTTAAA | – | – | 0.303 | –
ACAGACGAAGGAGCCGCAAAGAAGTTATTAATGGATGAATAATCCCTGAATATAAATATCTCTCACTTATTTAAA | – | 0.0961 | 0.133 | –
